Drawing on publication PMC7048170, this text covers fold of co-precipitated protein against the input control for two substances.

In this assay the target is MUC1 cytoplasmic tail construct (MUC1 with the tandem repeat domain deleted) (human). The experiment in a line: co-IP.

“c-Jun (from UniProt P05412 1-331) (natural protein)” had a fold of co-precipitated protein against the input control of 5.6 fold.
“p53 (from UniProt P04637 1-393) (natural protein)” returned a fold of co-precipitated protein against the input control of 6.9 fold.
